Test results published in the NTF2 design screens of Basanta et al. (2020).

Assay: protease stability score; higher = more stable; yeast display proteolysis, trypsin and chymotrypsin;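 also: relative to predicted unfolded state with 0 unfolded-like and 1 meaning tenfold more protease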

Sequence	protease stability score
DREHREREELLNETNKAIATGDEETLRRLFDPNVQIEQGEYHHHGWEWVKKLMEEMRIEVEHVHDRRVDMFENHVRVDTHVHLRFIIGDKIFHVNLRQEIVMHKVNGVWIFKSFKYH	1.4
DEEEEESHEATEMILYAHKTGDFDLWEKLADPHVRLDVNGVHVHGREEYVRIMRHIHKNWGVQRFHVEFHDLELQGEKVRVRLRSNFNGRHHTETIIIEKINGRWYLKTRRIT	1.42
DEDEEEARKSFKHLLRSRMTGDEDSLKSLIDPNARFDIDGKELIGREAEELLLEKFKNIKLHDVKLNDWRVDEHHVVWRIELDGFYNGKRDSLDFTLIVKKVNGRWVIHQVKLI	1.39
DEEDKALEESMRTYHESIHTGDEESFRLLFDPDVRMRINGVDLHGREAMEWMSERIDHLELRRIRFRSIETQGNKIRIDGHEDIEILVDGKRMRVIDRVIIQAVKVNGRWTIKSIKFG	1.15
DEEERDAIHAFRDFVKNFITGNEDRIDELADPHMRSDINGVSIHGWEEFSRHTLREMKRFDHIEFRIRDIKIQGNYIHIDTEVILRVNGRTFSTRMVLIWLKVNGKWFLHEIDVR	1.35
DHEEHLSHIALRESMEYLETGDPRKYTELMDPNVKLRVDINGKQIEFHGREEASRFMEHVQHEIKGARIETHSEDTQGNKIHMDLKLLINGKESKLIIIALKINGRWLVTSMEVHVK	1.88
HEEERIVEEVAKHFLHHFVTGDWHNLARLADPHVRSDINGRELHGWETLIHVMLKDLRRLGFKHFEVHHVHIQGDKYHNDGTLDYNGVKVRSHLEFQIVDGKLHQMRVQDK	1.07
REEEERVEHLARLVFRALMTGDEDEYKHLADPDDRLILVINGRRQEFHGMEVVLEWLRHLLKEIRIHHSHIHDVKVIGDKVDFDTSVDVEYNGQRHWRKMRVIIIIVNGRYRSVEIILE	2.26
DEEERDIKIAIEFWIETWLTGDEEKEEELLDPNVRLLINGKELHGRERVVKFLKRHYHRVDHSRIDIRRMHVVDGQVHVETELRVHFDGRELRFDIILHFRKFNGRWEITKIELR	2
TEEEHLVEEMARRMLHSWLTGDEETLERLLDPNVRLEMIIDGVELRLHGREDMSRWLREWVERVDHVEIEIKRIRLIGEKSILDGQIHERQGDKERVIKTEIIVVVVDGRIHNSKIIIR	1.14
DERKEMTRHFTEEWIRLWETGDFEHMHDLFDPHARIIIDGQDHHGMEHVNERWRRIKNIRLEIKDFKVYGDKIFIDLKVTVNGREEKVEIIVVVVDGKFKMIEFRFV	2.11
DEEKEDIERYNRLYFNASTTGDEDTLKRLADPHVRIHVGDKDQVGMEHLSTRLLELRIEVEFDHRHIEVQGDKVTVDGTLTLHIEIGEKRYERRVDLILHWHKIDGRWLIEQVDML	1.27
SEEEHLAREMTELHKQAELTGDEHFLNELMDPHVRIDINGVPAIGWEESNEVLKRIWEEMRIDDIRPTHVELQGNKIHVHVQSHITIDGQRRIFHERIVIVVFNGRMREVKFDIH	1.19
DHREEEQKRLTEEFITALKTGDEERWKELLDPNVKMHINGKDVVGREIAAKDLLDHWKNLGIKHIITHRIELQGEKVRIDTEERFNGRSVKTTMIIIVINGRLESFEFHVH	0.653
SEEERLYEHAWKLYIHDFITGDEKSHSRLADPHTQMIIGDKLLIGREEFVKWMKHLLDQVKNITVEHVKIRHEHYQGDKAHIDVEEEIHFNGQRHKRRVILTILKVNGRWSIESVEYT	0.898
SEEEKDARDFIDYLVHHLETGDEEEFEKLIDPHTRLQVDGRHFHGREAYEWMLYQFKNVKIKHLTIRHIEIQGDKVHITSTWNLIVDGQEKELRTHIILDKVNGRWMIRKMRIQ	1.8
SEEEEMDRHYSNLWNHLMFTGDWHWLEKLVDPHTRTIVDGQERHGREEALKVLKEVLEILGADVIRIHEMRYQGEKSNLVIEIKQGDKRLRVVIEVVVIDGVMHSLDLEIRHE	0.795
SELKEILRKAIELLLRLWVTGDEEELLELFDPNVKLVIGDKIFIGREEFEKVSRHARVKRSDINDFRVQGDKITYDTRMDGHVNGKDIDTTVDIIAVKIDGRWFNHSIIVH	-0.093

Sequence	protease stability score
SEEEHVLEFIVKLFLEAWLTGDEDIIDWLVDPHTRLHVNGVDLHGREEVSHFLAHIRVEQLHIDDERITNINGVLHVDIKTEERFDVNGRVTRTKSELHIFIRKVDGRWFIQVFKIVYH	0.332
DEEEEEAHTITEILVHDWRTGNEEHLVKLIDPNARINYNGVNLHGMKAVSIILHHIRYKDVSLHEVRVFDGQVEIILKIHVNINGQDETHHTHIVLSKVNGRWLIDTIKWE	1.28
DHRDRYAEEVAHRLLKLRHTGDEEIYHEFADPNDRLIIWIGDKSIHSHGRSLVVQVLRRLHEHWRLEDMFIHDEKLVGEKSNMDIHVVGNINGKRMETTEKFTVRVINGRLHTLEIHLD	0.474
HEEEEIERIAYNIYEYVRKTGDERVMTEMADPDARLIYGDKELVGREHMVQFLRWLLEQYKNVQLHIEHVEMIGDFVKIQSNLNVNGRTIEVELILLKYNGKWRIRSSVFK	1.07
HEDEELSEKWLEDILRDHETGNEHRLRELFDPDARSHVGDKKIIGREDWSRALKEFIEKFPGVRIEIRHHENDIVGDKVRLDVTIILNFNGVEHEMKVTLILRKYNGRWRIREIRIR	1.25
LESEEDLREAIRILIEDLRTGDEDSLHNLLDPNVRIDVNGVKLHGMEWVSHTIRHLGVKHTYVINRRIKIQGNKVDIDGEFNLRYDGKEERRRITLHVQKIDGVWVIEEITIR	0.971
DHDEKRVREILELFLNAITTGDEETLRHLLDPNVKTDINGVELHGWKDILHHLMEMRIHVRHYETRHLNKIGEYLHLEVHVYGEHHFDGRTREDTYYVNVIILKVNGRWHLHQFSVH	1.39
SEEEKEARRILTHFREVLHTGDEHALLELMDPNVRFILHDENHTVENHGMENMVTSLRKFGFDVIKRVHDKEHHLQGDKIKFHVETLGEINGREFEVEVQIRLYVVDGVLKWSEIIIH	1.1
SEVEELSRRVAEFTWEVLRTGDERLLREMIDPNVRMEIDGQEYHGMELLVEHWIKLHQKFPNLKLHLREVRVIDGVAHVRLEVRFNGVRLEIEVVITKINGRWSNTFVHETDR	1.13
DEEEKRWRHMTHLFWHIEKTGNEDRLSKLADPDVRLNINGVHAHGREEVISVLREFQERYKNLTIHIKDIKVFDGVVFIDGEDHFDGVTVKSLVIIFIVNGRIKEIEHRRE	1.62
NEIEELVRESLELLAHALETGDEKLMTELADPDTRLIVNGRHLWGWELHLMFLTRFDHIETRIRLTEMEVQGEKVNSRGDMDVIVNVDGQRDRKRHEFIIISTKINGRWRLKSVILR	1.57
SHVEEESREAIERFEHLLRTGNEEELENLADPNVLLRVNGKEIWGRERAIKHIIHEMTRVKNMKLTSESFEISENHIHFKFTLTINGKIIHLEIVTKKVDGRWVIKHVEFH	1.32
SEDEESSEKAAKFWLEMLRTGDWEEFERLADPNTKTHQGDKTIHGMEIVIEILMRVKGARVDTTHVRIDVQGDFVIFDVDNILNINGVHTEIRIHLRVLKVNGRWRVKELTIKHK	1.57
DEVEERMKRIVKHFVSAVLTGNFRHMEQLFDPNYKHRIEIGDKIVNLHGWEAVVKWIEEEWRRFDHVEIRIRDMDVIGNKSEVHGDLHLKAENHTLEIHVIEHFFIVNGKLHHIEKTHH	-0.007
TELETELEHMVKIVIDSLLTGDEKKLHKQADPHVRHSQGEFEWHTREAMIRFFFELGIDHMTLTEIHLQGDFVEMHIENNINGRRVELRIHWHKFNGKWINRRTHVRHI	0.698
SEEEHRSELAVELVHYTLMTGDFHLIERLVDPNVKLRILIGDKEYDLHGWKEVYRFMVTFGFDHMELKTFDLQGDKLNIDLRLHVDGRNVETSIVALKVNGKWINESEHYRIK	0.464
SEHDKEMREWIKTLFELMYTGDWVILRELADPNAKFRQGDFTKIGREQYERHVRRHLDLLGHDNIEIHWEDVEIVGNYAVFHGHLTFNGKSTHVIIRVFVIDGRMKHEHVEIK	1.3
DEHEEKIHFILHILQEAWRTGDESQLENLLDPNVRIIIGDKKTHGREAVINLFNHWRVENIRVHLRDVRVQGDKIHLETEIQVDGNVNGKTDRIEFETEFIIRKVDGRWLIEVIRMH	2.17
